Values of other authors, collected in paper PMC4467374.

Key:
[1] = molecular target: histone H3 K9me3 peptide (Homo sapiens) (UniProt P68431)
[2] = molecular target: histone H3 K4me3/K9me3 peptide (Homo sapiens) (UniProt P68431)

Sequence of UHRF1 TTD (Q96T88 124-285): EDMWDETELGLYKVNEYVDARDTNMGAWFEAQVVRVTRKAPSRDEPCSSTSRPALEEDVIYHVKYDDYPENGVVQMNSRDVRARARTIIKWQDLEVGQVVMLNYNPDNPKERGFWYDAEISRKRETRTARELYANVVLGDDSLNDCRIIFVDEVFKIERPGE

UHRF1 TTD (from UniProt Q96T88)
Kd [1]: 20 µM
Kd [2]: 90 µM
